This passage reports Kd results from patent US20140154817A1 (WALTER AND ELIZA HALL INSTITUTE OF MEDICAL RESEARCH, published 2014).

The target of one test is T1, Human IGF-I (human, UniProt P05019 49-118).
T1 construct: mature
As to the kind of experiment: ITC, 25 °C, IGF-I titrated into IR485 pre-mixed with 10-fold IR αCT peptide. The method, then:
(§1) ITC experiments were performed using a VP-ITC isothermal titration calorimeter (MicroCal Inc., USA) with the calorimeter cell held at 25° C. All samples were degassed prior to injection or placement into the cell, and the instrument was temperature equilibrated prior to the start of the injections. In all experiments the volume of sample placed in the cell was 1.4 ml and the titrant was injected in 7 μl volumes over 14 s at 3 min intervals, with the total number of injections being 40. The sample contents were stirred at a speed of 310 rpm over the duration of the titration. […] Data were analyzed using the instrument's software incorporated within the Origin 7 software (OriginLab, USA) and in all cases fitted as a single-site interaction using the methodologies outlined in the instrument's manual.

Test [1] addresses T2, Zinc-free porcine insulin (porcine, UniProt P01315 88-108; P01315 25-54).
T2 construct: mature; Made zinc-free by dialysis against 0.1% acetic acid and lyophilisation; also called ZFP-insulin
In words: ITC, 25 °C, hormone titrated into IR485 pre-mixed with 10-fold IR αCT peptide. The method, then:
as §1

T2 sequence (P01315 88-108 limits assumed, chain 1 of 2): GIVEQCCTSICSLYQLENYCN
T2 sequence (P01315 25-54 limits assumed, chain 2 of 2): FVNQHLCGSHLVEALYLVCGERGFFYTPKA

B1: IR485 pre-complexed with a 10-fold molar ratio of IR classical αCT peptide (other)
chain: HLYPGEVCPGMDIRNNLTRLHELENCSVIEGHLQILLMFKTRPEDFRDLSFPKLIMITDYLLLFRVYGLESLKDLFPNLTVIRGSRLFFNYALVIFEMVHLKELGLYNLMNITRGSVRIEKNNELCYLATIDWSRILDSVEDNHIVLNKDDNEECGDICPGTAKGKTNCPATVINGQFVERCWTHSHCQKVCPTICKSHGCTAEGLCCHSECLGNCSQPDDPTKCVACRNFYLDGRCVETCPPPYYHFQDWRCVNFSFCQDLHHKCKNSRRQGCHQYVIHNNKCIPECPSGYTMNSSNLLCTPCLGPCPKVCHLLEGEKTIDSVTSAQELRGCTVINGSLIINIRGGNNLAAELEANLGLIEEISGYLKIRRSYALVSLSFFRKLRLIRGETLEIGNYSFYALDNQNLRQLWDWSKHNLTTTQGKLFFHYNPKLCLSEIHKMEEVSGTKGRQERNDIALKTNGDKASCENELLKFSYIRTSFDKISDDDDKEQKLISEEDLN
peptide: TFEDYLHNVVFVPRPS
notes: Non-covalent receptor fragment and peptide mixture in the ITC cell; also called IR485 + (10 × IR-αCT)
Regarding B1, the dissociation constant (Kd) with Human IGF-I turned out to be 490 nM; in test [1], 17 nM.

Broadly, the Kd is the free concentration of one partner at which half of the binding sites on the other are occupied at equilibrium, for simple one-to-one binding.
